These results are taken from paper PMC4155686, “Oleoyl Coenzyme A Regulates Interaction of Transcriptional Regulator RaaS (Rv1219c) with DNA in Mycobacteria*” (The Journal of Biological Chemistry, 2014).

Usually Kd stands for the constant that tells how readily two partners part at equilibrium. The term stoichiometry N denotes a count of units in the complex or per binding partner.

The target of one data set is T1, RaaS Y174A (Mycobacterium tuberculosis, UniProt O86312 1-212, Y174A).
T1 sequence: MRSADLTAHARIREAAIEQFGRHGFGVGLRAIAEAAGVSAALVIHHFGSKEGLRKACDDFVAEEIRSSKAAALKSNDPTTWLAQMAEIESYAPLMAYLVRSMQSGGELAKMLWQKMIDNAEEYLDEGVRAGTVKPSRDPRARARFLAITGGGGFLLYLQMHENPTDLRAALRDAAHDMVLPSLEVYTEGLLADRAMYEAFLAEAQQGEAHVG
As to the kind of experiment: fluorescence anisotropy; 4 nM DNA; FA: 50 mM Tris-HCl pH 8.5, 150 mM NaCl, temperature not stated; EMSA: 50 mM Tris-HCl pH 8.0, 1 mM EDTA, 50 mM NaCl, 4% glycerol, sheared salmon sperm DNA (printed as 1 g per reaction), 10 min, room temperature. To be noted: protein: recombinant; chain copies: 2.

In another data set the target is T2, RaaS R144A (Mycobacterium tuberculosis, UniProt O86312 1-212, R144A).
T2 sequence: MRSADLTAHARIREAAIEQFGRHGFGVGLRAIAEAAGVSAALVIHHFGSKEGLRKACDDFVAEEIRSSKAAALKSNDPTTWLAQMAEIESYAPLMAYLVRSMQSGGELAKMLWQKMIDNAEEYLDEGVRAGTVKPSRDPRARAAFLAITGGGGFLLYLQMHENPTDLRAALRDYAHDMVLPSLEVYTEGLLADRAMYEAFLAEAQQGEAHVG
The description is as above. As to conditions: protein: recombinant; chain copies: 2.

A further data set addresses T3, RaaS R140A (Mycobacterium tuberculosis, UniProt O86312 1-212, R140A).
T3 sequence: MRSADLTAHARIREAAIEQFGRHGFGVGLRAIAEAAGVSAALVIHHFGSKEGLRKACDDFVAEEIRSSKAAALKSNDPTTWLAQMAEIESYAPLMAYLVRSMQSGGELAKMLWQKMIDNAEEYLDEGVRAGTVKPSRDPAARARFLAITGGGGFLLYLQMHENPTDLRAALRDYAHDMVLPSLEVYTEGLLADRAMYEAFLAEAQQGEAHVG
As to the kind of experiment: fluorescence anisotropy; 4 nM DNA. As to conditions: protein: recombinant; chain copies: 2.

Data set [1] deals with the molecule itself. As to the kind of experiment: small-angle X-ray scattering; protein alone in solution at 1 and 3 mg/ml, data extrapolated to infinite dilution; apparent molecular mass from I(0).

B1: Pr14F/Pr14R (ATTO 647N) (dsDNA)
DNA 1: GGGATGAACGTACGTTTAATATCCTGAACATGCGTTCAG
DNA 2: GGGCTGAACGCATGTTCAGGATATTAAACGTACGTTCAT
Regarding B1, the figures for the Kd in the data set with RaaS Y174A, in the data set with RaaS R144A and in the data set with RaaS R140A were 611 ± 120 nM, 129 ± 70 nM and 654 ± 300 nM, respectively.

B2: RaaS (Rv1219c) R144A mutant (natural protein)
chain: MRSADLTAHARIREAAIEQFGRHGFGVGLRAIAEAAGVSAALVIHHFGSKEGLRKACDDFVAEEIRSSKAAALKSNDPTTWLAQMAEIESYAPLMAYLVRSMQSGGELAKMLWQKMIDNAEEYLDEGVRAGTVKPSRDPRARAAFLAITGGGGFLLYLQMHENPTDLRAALRDYAHDMVLPSLEVYTEGLLADRAMYEAFLAEAQQGEAHVG
Turning to B2, the “stoichiometry N” value in data set [1] is 2.

B3: RaaS (Rv1219c) Y174A mutant (natural protein)
chain: MRSADLTAHARIREAAIEQFGRHGFGVGLRAIAEAAGVSAALVIHHFGSKEGLRKACDDFVAEEIRSSKAAALKSNDPTTWLAQMAEIESYAPLMAYLVRSMQSGGELAKMLWQKMIDNAEEYLDEGVRAGTVKPSRDPRARARFLAITGGGGFLLYLQMHENPTDLRAALRDAAHDMVLPSLEVYTEGLLADRAMYEAFLAEAQQGEAHVG
In the case of B3, the “stoichiometry N” value in data set [1] is 2.
